Results on one molecule are retold here after US20020137055, “Method and apparatus for measurement of the effect of test compounds on signal transduction at the level of biological receptors” (published 2002).

Settings in all cases: protein: extract; tags: Cy5-labelled; expressed as ubiquitin fusion in Saccharomyces cerevisiae AF103 (YEpE10 plasmid); yeast extract preparation
For data set [1], the target named is T1, human estrogen receptor (recombinant hER, 65 kDa) (Homo sapiens, UniProt P03372 P03372:1-595). The data set is described as follows: evanescent fiber optic sensor; with 1e-6 M estrone; control 3.51. As to the method: (§1) This solution comprised said calibration standard of component 6a. […] This receptor preparation was used as the calibration solution. Immediately after preparation it was pipetted in 135 μl aliquots into microcentrifuge tubes, snap frozen and stored at −80° C. They were not thawed again until they were used with the fiber sensor. Sample solutions of component 6a were similarly prepared, except that the dilution at the end with receptor buffer gave a total receptor concentration of […]. If the solution was to be used with an ERE fiber (component 1a type 2), then polydeoxyinosinic-deoxycytidylic acid sodium salt was added to the receptor buffer to prevent nonspecific binding to the ERE fiber. Solutions containing 4.4×10⁻¹⁰ M Cy5-tagged-estrogen-receptor solution and in addition to a predetermined amount of estrogen or estrogen mimic were created to test the impact of said estrogen or estrogen mimic.
T1 sequence (P03372 whole entry, one chain of several): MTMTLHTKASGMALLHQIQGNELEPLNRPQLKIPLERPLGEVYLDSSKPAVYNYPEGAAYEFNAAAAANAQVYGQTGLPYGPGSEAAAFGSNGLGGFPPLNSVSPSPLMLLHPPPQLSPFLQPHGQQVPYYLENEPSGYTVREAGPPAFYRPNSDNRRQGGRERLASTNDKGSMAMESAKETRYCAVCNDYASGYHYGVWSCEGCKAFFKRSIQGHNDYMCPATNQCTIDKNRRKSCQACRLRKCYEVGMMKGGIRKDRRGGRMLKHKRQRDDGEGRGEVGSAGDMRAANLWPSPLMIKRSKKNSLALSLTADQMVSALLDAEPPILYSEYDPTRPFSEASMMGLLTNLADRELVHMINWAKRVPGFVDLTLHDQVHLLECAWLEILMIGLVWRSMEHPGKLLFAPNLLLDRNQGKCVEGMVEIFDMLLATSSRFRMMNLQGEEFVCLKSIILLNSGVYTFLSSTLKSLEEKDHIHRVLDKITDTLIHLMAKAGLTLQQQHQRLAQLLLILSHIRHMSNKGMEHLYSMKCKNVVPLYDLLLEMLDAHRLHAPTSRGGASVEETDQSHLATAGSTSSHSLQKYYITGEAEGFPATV
(§2) 12) Using fiber sensors of component 1a type 2, and the foregoing procedure the S/C value was calculated for several different estrogens tested at 10⁻⁶ M concentration.

For data set [2], the target named is T1, human estrogen receptor (recombinant …). The experiment in a line: evanescent fiber optic sensor; control, no ligand; 4.4e-10 M receptor; 500 mM KCl phosphate pH 7.5, poly(dI-dC). As to the method:
as §1, §2

The target is the same in data set [3]. The data set is described as follows: evanescent fiber optic sensor; with 1e-6 M diethylstilbestrol; control 3.51. As to the method:
as §1, §2

Data set [4] has the same target. The experiment in a line: evanescent fiber optic sensor; with 1e-6 M zearalenone; control 3.51. How it is done: as §1, §2

B1: ERE (Xenopus vitellogenin A2 estrogen response element) (dsDNA)
DNA 1: GTCCAAAGTCAGGTCACAGTGACCTGATCAAAGTT
DNA 2: AACTTTGATCAGGTCACTGTGACCTGACTTTGGAC
modifications: amine on the 5' G residue of one strand, covalently linked to optical fiber via GMBS
As to B1, the binding signal is 4.44 S/C ratio in data set [1], 3.51 S/C ratio in data set [2], 4.87 S/C ratio in data set [3] and 5.01 S/C ratio in data set [4].
